Test results as given in patent US20240132624A1 (Ablynx, published 2024).
Substitutions are numbered along the chain they refer to.

B1: T0263018B11 A33G (VHH, name in Kabat numbering)
VHH: EVQLVESGGGVVQPGGSLRLSCAASGFTFSSYGMYWVRQAPGKGLEWVSAISSGGGSTDYADSVKGRFTISRDNSKNTLYLQMNSLRPEDTALYYCAADTLYTSLTWYSYWGQGTLVTVSS
notes: FLAG3-His6 tagged
B2: T0263018B11 T57Y (VHH, name in Kabat numbering)
VHH: B1 VHH with G33A, T58Y
notes: FLAG3-His6 tagged
B3: T0263018B11 A33Q (VHH, name in Kabat numbering)
VHH: B1 VHH with G33Q
notes: FLAG3-His6 tagged
B4: T0263018B11 A33S (VHH, name in Kabat numbering)
VHH: B1 VHH with G33S
notes: FLAG3-His6 tagged
B5: T0263018B11 T28A (VHH, name in Kabat numbering)
VHH: B1 VHH with T28A, G33A
notes: FLAG3-His6 tagged
B6: T0263018B11 D58H (VHH, name in Kabat numbering)
VHH: B1 VHH with G33A, D59H
notes: FLAG3-His6 tagged
B7: T0263018B11 A94S (VHH, name in Kabat numbering)
VHH: B1 VHH with G33A, A98S
notes: FLAG3-His6 tagged
B8: T0263018B11 S52aD (VHH, name in Kabat numbering)
VHH: B1 VHH with G33A, S53D
notes: FLAG3-His6 tagged
B9: T0263018B11 D58V (VHH, name in Kabat numbering)
VHH: B1 VHH with G33A, D59V
notes: FLAG3-His6 tagged
B10: T0263018B11 A33T (VHH, name in Kabat numbering)
VHH: B1 VHH with G33T
notes: FLAG3-His6 tagged
B11: T0263018B11 A33V (VHH, name in Kabat numbering)
VHH: B1 VHH with G33V
notes: FLAG3-His6 tagged
B12: T0263018B11 D58E (VHH, name in Kabat numbering)
VHH: B1 VHH with G33A, D59E
notes: FLAG3-His6 tagged
B13: T0263018B11 A93V (VHH, name in Kabat numbering)
VHH: B1 VHH with G33A, A97V
notes: FLAG3-His6 tagged
B14: T0263018B11 S56M (VHH, name in Kabat numbering)
VHH: B1 VHH with G33A, S57M
notes: FLAG3-His6 tagged

Molecular target: T1, human FcRn/b2M (human, UniProt P61769 21-119, biotinylated)
T1 construct: bought recombinant biotinylated protein (ACRO FCM-H82W4 or Immunitrack ITF01); also called hFcRn; hFcRn/hb2M
Experiment: SPR pH 7.4;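 further: surface plasmon resonance kinetics, periplasmic extracts diluted 1:10 flowed over immobilized target at 25 °C, 120 s association then 600–3600 s dissociation, buffer with 150 mM NaCl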
Experimental: (§1) All kinetic measurements have been performed on ProteOn XPR36 (BioRad Laboratories, Inc.), MASS-2 (Sierra sensors, Gmbh) or SPR-32 (Bruker Corporation). […] The phytip purified periplasmic extracts were diluted 1:10 in running buffer (CPA+150 mM NaCl+0.005% Tw20 at pH 5.5, pH 6.0 or pH 7.4) and injected over the ligand surfaces (association: 120 s at 45 μL/min; dissociation: 600s-3600 s at 45 μL/min). Experiments were carried out at 25° C.

koff	Binder
0.034 s⁻¹	B1
0.033 s⁻¹	B2
0.065 s⁻¹	B3
0.059 s⁻¹	B4
0.046 s⁻¹	B5
0.079 s⁻¹	B6
0.046 s⁻¹	B7
0.044 s⁻¹	B8
0.14 s⁻¹	B9
0.0038 s⁻¹	B10
0.0082 s⁻¹	B11
0.08 s⁻¹	B12
0.15 s⁻¹	B13

Molecular target: T2, cyno FcRn/b2M (cyno, UniProt Q8SPV9 24-297; Q8SPW0 21-119, biotinylated)
T2 construct: bought recombinant biotinylated protein (Immunitrack ITF05 or ACRO FCM-C82W5); also called cFcRn; cFcRn/cb2M
Experiment: SPR pH 7.4;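 further: surface plasmon resonance kinetics, periplasmic extracts diluted 1:10 flowed over immobilized target at 25 °C, 120 s association then 600–3600 s dissociation, buffer with 150 mM NaCl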
Experimental: as §1

T2 sequence (Q8SPV9 24-297 limits assumed, chain 1 of 2): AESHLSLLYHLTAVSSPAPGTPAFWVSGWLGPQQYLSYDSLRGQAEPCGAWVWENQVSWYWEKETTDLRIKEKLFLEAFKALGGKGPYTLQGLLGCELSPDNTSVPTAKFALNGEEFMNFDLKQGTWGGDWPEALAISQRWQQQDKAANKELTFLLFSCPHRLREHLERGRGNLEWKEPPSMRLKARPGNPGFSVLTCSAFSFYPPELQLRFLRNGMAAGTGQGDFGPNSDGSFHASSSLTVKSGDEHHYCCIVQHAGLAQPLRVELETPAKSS
T2 sequence (Q8SPW0 21-119 limits assumed, chain 2 of 2): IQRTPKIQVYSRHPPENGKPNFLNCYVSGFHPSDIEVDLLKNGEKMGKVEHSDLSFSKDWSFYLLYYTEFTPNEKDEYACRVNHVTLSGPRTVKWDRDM

koff	Binder
0.04 s⁻¹	B1
0.035 s⁻¹	B2
0.13 s⁻¹	B3
0.065 s⁻¹	B4
0.033 s⁻¹	B5
0.022 s⁻¹	B6
0.047 s⁻¹	B7
0.051 s⁻¹	B8
0.027 s⁻¹	B9
0.0058 s⁻¹	B10
0.013 s⁻¹	B11
0.038 s⁻¹	B12
0.14 s⁻¹	B13

Molecular target: T1, human FcRn/b2M
Experiment: SPR pH 6.0;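 further: surface plasmon resonance kinetics at 25 °C, diluted periplasmic extracts injected over immobilized ligand surfaces, 120 s association then 600–3600 s dissociation, running buffer containing 150 mM NaCl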
Experimental: as §1

koff	Binder
0.0013 s⁻¹	B1
0.0018 s⁻¹	B3
0.0015 s⁻¹	B4
0.012 s⁻¹	B6
0.0013 s⁻¹	B7
0.015 s⁻¹	B9
0.00011 s⁻¹	B10
0.00022 s⁻¹	B11
0.0024 s⁻¹	B12
0.003 s⁻¹	B13

Molecular target: T2, cyno FcRn/b2M
Experiment: SPR pH 6.0;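 further: surface plasmon resonance kinetics at 25 °C, diluted periplasmic extracts injected over immobilized ligand surfaces, 120 s association then 600–3600 s dissociation, running buffer containing 150 mM NaCl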
Experimental: as §1

koff	Binder
0.0011 s⁻¹	B1
0.00084 s⁻¹	B2
0.0027 s⁻¹	B3
0.0013 s⁻¹	B4
0.00052 s⁻¹	B5
0.002 s⁻¹	B6
0.0011 s⁻¹	B7
0.00089 s⁻¹	B8
0.0025 s⁻¹	B9
0.00011 s⁻¹	B10
0.00024 s⁻¹	B11
0.0012 s⁻¹	B12
0.0021 s⁻¹	B13

Molecular target: T1, human FcRn/b2M
Experiment: SPR off-rate; pH 7.4 vs pH 6.0;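 further: surface plasmon resonance with diluted periplasmic extracts flowed over ligand surfaces, 120 s association and 600–3600 s dissociation at 25 °C, running buffer containing 150 mM NaCl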
Experimental: as §1

kd ratio pH 7.4/6.0	Binder
26	B1
36	B3
39	B4
7	B6
35	B7
9	B9
31	B14
36	B10
37	B11
33	B12
50	B13

Molecular target: T2, cyno FcRn/b2M
Experiment: SPR off-rate; pH 7.4 vs pH 6.0;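 further: surface plasmon resonance with diluted periplasmic extracts flowed over ligand surfaces, 120 s association and 600–3600 s dissociation at 25 °C, running buffer containing 150 mM NaCl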
Experimental: as §1

kd ratio pH 7.4/6.0	Binder
36	B1
48	B3
50	B4
11	B6
43	B7
11	B9
54	B10
53	B11
32	B12
67	B13
